Assay results published in PMC11176775, “Impact of DNA ligase 1 and IIIα interactions with APE1 and polβ on the efficiency of base excision repair pathway at the downstream steps”.

Assays:
[1] = biological target: apurinic/apyrimidinic endonuclease 1 (APE1) (UniProt P27695 1-318); experiment: BLI; BLI (Octet QKe), 20 °C: polβ, APE1, LIGIIIα in 20 mM Hepes pH 7.4, 200 mM NaCl, 0.5% BSA, 0.05% Tween 20; LIG1 in 50 mM Tris-HCl pH 7.5, 100 mM KCl, 1 mM DTT; no Mg2+ listed; conditions: protein: recombinant, tags: His, strands 1 and 2 pair with strand 3, blunt outer ends
[2] = biological target: T1, DNA ligase IIIα (LIGIIIα) (UniProt P49916-3 1-922); experiment: BLI; range given jointly for polβ, LIG1 and LIGIIIα; individual value only in figure; BLI (Octet QKe), 20 °C: polβ, APE1, LIGIIIα in 20 mM Hepes pH 7.4, 200 mM NaCl, 0.5% BSA, 0.05% Tween 20; LIG1 in 50 mM Tris-HCl pH 7.5, 100 mM KCl, 1 mM DTT; no Mg2+ listed; conditions: protein: recombinant; tags: His; label: 3'-biotin on S2; 1-nt gap opposite template C; strands 1 and 2 pair with strand 3; blunt outer ends
T1 sequence: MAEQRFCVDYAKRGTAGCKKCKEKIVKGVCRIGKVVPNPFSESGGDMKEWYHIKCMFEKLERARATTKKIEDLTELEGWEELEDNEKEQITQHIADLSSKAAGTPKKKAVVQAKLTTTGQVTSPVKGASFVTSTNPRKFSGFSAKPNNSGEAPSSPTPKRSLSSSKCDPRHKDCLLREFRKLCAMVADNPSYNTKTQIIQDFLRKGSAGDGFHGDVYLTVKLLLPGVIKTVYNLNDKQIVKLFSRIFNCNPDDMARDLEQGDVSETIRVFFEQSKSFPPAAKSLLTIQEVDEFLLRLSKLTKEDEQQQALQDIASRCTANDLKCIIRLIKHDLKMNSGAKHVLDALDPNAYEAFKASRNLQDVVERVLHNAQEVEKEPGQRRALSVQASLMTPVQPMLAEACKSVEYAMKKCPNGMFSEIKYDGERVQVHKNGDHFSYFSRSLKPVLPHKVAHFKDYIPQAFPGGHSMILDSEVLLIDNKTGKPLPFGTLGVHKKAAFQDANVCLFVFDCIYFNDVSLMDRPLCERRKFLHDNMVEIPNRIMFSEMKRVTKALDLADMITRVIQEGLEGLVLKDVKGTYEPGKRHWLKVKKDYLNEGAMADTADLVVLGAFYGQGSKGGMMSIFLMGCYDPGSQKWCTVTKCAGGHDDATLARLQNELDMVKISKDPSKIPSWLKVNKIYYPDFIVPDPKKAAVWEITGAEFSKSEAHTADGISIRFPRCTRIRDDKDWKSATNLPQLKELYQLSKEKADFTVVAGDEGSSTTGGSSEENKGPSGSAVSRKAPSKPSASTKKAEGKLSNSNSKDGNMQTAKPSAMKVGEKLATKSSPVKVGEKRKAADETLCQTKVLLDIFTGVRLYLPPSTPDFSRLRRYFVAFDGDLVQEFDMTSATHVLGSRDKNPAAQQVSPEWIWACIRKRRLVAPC

[3] = biological target: T2, DNA polymerase beta (polβ) (UniProt P06746 1-335); experiment: BLI; range given jointly for polβ, LIG1 and LIGIIIα; individual value only in figure; BLI (Octet QKe), 20 °C: polβ, APE1, LIGIIIα in 20 mM Hepes pH 7.4, 200 mM NaCl, 0.5% BSA, 0.05% Tween 20; LIG1 in 50 mM Tris-HCl pH 7.5, 100 mM KCl, 1 mM DTT; n
[4] = biological target: T3, DNA ligase 1 (LIG1) (UniProt P18858 1-919); experiment: BLI; range given jointly for polβ, LIG1 and LIGIIIα; LIG1 buffer; BLI (Octet QKe), 20 °C: polβ, APE1, LIGIIIα in 20 mM Hepes pH 7.4, 200 mM NaCl, 0.5% BSA, 0.05% Tween 20; LIG1 in 50 mM Tris-HCl pH 7.5, 100 mM KCl, 1 mM DTT; no Mg2+ listed; conditions: protein: recombinant; tags: His; label: 3'-biotin on S2; 1-nt gap opposite template C; strands 1 and 2 pair with strand 3; blunt outer ends
[5] = biological target: T1, DNA ligase IIIα (LIGIIIα); experiment: BLI; BLI (Octet QKe), 20 °C: polβ, APE1, LIGIIIα in 20 mM Hepes pH 7.4, 200 mM NaCl, 0.5% BSA, 0.05% Tween 20; LIG1 in 50 mM Tris-HCl pH 7.5, 100 mM KCl, 1 mM DTT; no Mg2+ listed; conditions: protein: recombinant; tags: His; label: 3'-biotin on strand 2; nicked duplex; strands 1 and 2 pair with strand 3; blunt outer ends
[6] = biological target: T3, DNA ligase 1 (LIG1); experiment: BLI; LIG1 buffer; BLI (Octet QKe), 20 °C: polβ, APE1, LIGIIIα in 20 mM Hepes pH 7.4, 200 mM NaCl, 0.5% BSA, 0.05% Tween 20; LIG1 in 50 mM Tris-HCl pH 7.5, 100 mM KCl, 1 mM DTT; no Mg2+ listed; conditions: protein: recombinant; tags: His; label: 3'-biotin on strand 2; nicked duplex; strands 1 and 2 pair with strand 3; blunt outer ends
[7] = biological target: T2, DNA polymerase beta (polβ); experiment: BLI; BLI (Octet QKe), 20 °C: polβ, APE1, LIGIIIα in 20 mM Hepes pH 7.4, 200 mM NaCl, 0.5% BSA, 0.05% Tween 20; LIG1 in 50 mM Tris-HCl pH 7.5, 100 mM KCl, 1 mM DTT; n

B1: one-nucleotide gap DNA (template C) (dsDNA)
DNA 1: CATGGGCGGCATGAACC
DNA 2: GAGGCCCATCCTCACC
DNA 3: GGTGAGGATGGGCCTCCGGTTCATGCCGCCCATG
modifications: 5'-phosphate on S2 at the gap; 3'-OH on S1
Kd ([1]; label: 3'-biotin on S2, 1-nt gap opposite template C): 70 nM
Kd [2]: ~4.9 nM
Kd [3]: ~4.9 nM
Kd [4]: ~4.9 nM

B2: nick DNA (3'-dG:C) (dsDNA)
DNA 1: CATGGGCGGCATGAACCG
DNA 2: GAGGCCCATCCTCACC
DNA 3: B1 DNA 3
modifications: 5'-phosphate on strand 2 at the nick; 3'-OH on strand 1
Kd ([1]; label: 3'-biotin on strand 2, nicked duplex): 200 nM
Kd [5]: ~7 nM
Kd [6]: 3 nM
Kd [7]: ~20 nM
